Results published in the supplement of paper PMC12042874.
± gives the uncertainty stated by the source.

Test: amyloid nucleation score (Sup35N fusion, yeast selection) (log enrichment); library NNK1; higher = more nucleation; inactive = no reads after selection
How it was run: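 Libraries of peptides of 20 random codons fused to Sup35N were expressed in psi-negative yeast and induced 24 hours with 100 μM copper sulfate. Selection was 7 days at 30°C on medium lacking adenine and uracil, and plasmid inserts were Illumina-sequenced before and after selection. Nucleation score is the DiMSum log enrichment of output over input reads, centred on the mode score of non-aggregating sequences, and sequences with under 100 input reads were left out.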
DAYTGCIDNSVANAG gave an amyloid nucleation score of 0.481 ± 0.6.
Substance DCAKTANDSDVLFFDTSGAR has an amyloid nucleation score of 0.504 ± 0.4.
DCLWPLVSMFLVPLRASKVR showed an amyloid nucleation score of 0.128 ± 0.44.
In the case of DCQNYLSFVN, the amyloid nucleation score is reported as -1.29 ± 2.4.
In the case of DCVKGHSECCRPSKLVKYWR, the amyloid nucleation score is reported as “inactive”.
With DDHSLQPRLPLE the amyloid nucleation score was “inactive”.
With DDLPPRRNASFQWNKGFFRV the amyloid nucleation score was -0.448 ± 1.7.
Substance DDPLNVTHKVRN has an amyloid nucleation score of 5.31 ± 0.069.
Substance DDSSDTEVRLGYALAGIKVG has an amyloid nucleation score of -0.406 ± 0.34.
Work on DDYTGSEVNIITIV yielded an amyloid nucleation score of -1.43 ± 0.44.
Substance DEPAWCSIFAGDIMLKCC has an amyloid nucleation score of 3.57 ± 0.077.
For DETDQNTFTTSIV, the amyloid nucleation score was 1.23 ± 0.28.
For DFCVQNFMMLKFKLCYRRSL, the amyloid nucleation score was -0.134 ± 1.2.
For DFILQMLL, the amyloid nucleation score was 0.401 ± 0.3.
With DFLFNGLNITRCYFA the amyloid nucleation score was 0.193 ± 0.72.
Work on DFLNWWCRCVTFNSGRSGFV yielded an amyloid nucleation score of 0.392 ± 0.6.
For DFLRIRVAKKSLDMGFIV, the amyloid nucleation score was -0.251 ± 0.36.
Substance DFTCIRMNQSFVIRAFGALC has an amyloid nucleation score of 3.75 ± 0.16.
For DGDVE, the amyloid nucleation score was -0.494 ± 0.74.
For DGGNVV, the amyloid nucleation score was 0.452 ± 1.2.
For DGKKYTVMSFSEQSK, the amyloid nucleation score was -0.368 ± 1.7.
With DGLKGSLCGMGHRLCLKKMN the amyloid nucleation score was 0.131 ± 0.41.
DGQPLLMGEHYSLGITLM gave an amyloid nucleation score of 1.1 ± 0.81.
Work on DGRRTDWVLCNGARIRTCYD yielded an amyloid nucleation score of -0.316 ± 0.44.
Substance DGSLKVELQR has an amyloid nucleation score of 1.14 ± 0.49.
With DGTVR the amyloid nucleation score was 1.62 ± 0.17.
With DIFHSLILHMDMYEG the amyloid nucleation score was 0.811 ± 0.85.
Substance DIGAVIAWSNRLVWLQPTLL has an amyloid nucleation score of -0.506 ± 0.84.
For DILDSH, the amyloid nucleation score was -0.824 ± 0.38.
For DINWYTLDAHV, the amyloid nucleation score was -1.86 ± 1.9.
In the case of DISDRGTDIFVSTPGSSMLS, the amyloid nucleation score is reported as 0.503 ± 0.43.
Substance DKGVFAMDKRITMVEFLS has an amyloid nucleation score of -0.87 ± 1.3.
Work on DKLICLMLEAASICYKVQSG yielded an amyloid nucleation score of -0.673 ± 0.57.
In the case of DKLLPHFK, the amyloid nucleation score is reported as “inactive”.
Substance DKNGIPYISCEYNQM has an amyloid nucleation score of -0.46 ± 0.72.
With DKSFDFVLGSEACMVVEVGN the amyloid nucleation score was -0.496 ± 0.61.
DKTKLLLTLRNWLSP showed an amyloid nucleation score of 0.177 ± 0.56.
For DLADNVRKMGEFTSSVANIL, the amyloid nucleation score was 0.204 ± 0.4.
For DLDSVGTVMGDQGDFS, the amyloid nucleation score was -0.416 ± 0.55.
In the case of DLEPWWACLAKGSSGLISYV, the amyloid nucleation score is reported as 0.396 ± 0.38.
For DLFICSSARAVNKIFRVLHA, the amyloid nucleation score was 0.511 ± 0.91.
With DLHWILNHTNGACFQWGQPA the amyloid nucleation score was “inactive”.
With DLIMFD the amyloid nucleation score was -0.029 ± 0.73.
With DLKALCCDRMKVLGFVRSPG the amyloid nucleation score was 1.18 ± 0.42.
Work on DLNCFAFVWVIIYTRDGWTI yielded an amyloid nucleation score of -0.353 ± 0.3.
For DLSMKRVDKAPCYGNGDYRT, the amyloid nucleation score was -0.644 ± 0.98.
Substance DLVSTVKDGAECDDKEECSL has an amyloid nucleation score of -0.147 ± 0.26.
DMHQRMPVFHGHRATYCC gave an amyloid nucleation score of 0.102 ± 0.56.
In the case of DMNDYSK, the amyloid nucleation score is reported as -0.592 ± 0.39.
With DMNNNIVSKSSFLGDVRVIY the amyloid nucleation score was -0.19 ± 1.2.
Work on DMVVRDQHL yielded an amyloid nucleation score of 4.7 ± 0.066.
For DNMFDTWLSGATV, the amyloid nucleation score was -0.554 ± 0.66.
Work on DNNYSCILAASYLYGLKNYL yielded an amyloid nucleation score of -0.12 ± 0.51.
With DNRIIWLRGTMS the amyloid nucleation score was 0.853 ± 0.92.
DNWSMGYPEETGAWGVN showed an amyloid nucleation score of 0.406 ± 0.45.
Substance DPARGWPQNVNLFLLSNRR has an amyloid nucleation score of 1.01 ± 0.63.
In the case of DPMHYL, the amyloid nucleation score is reported as 4.55 ± 0.098.
Work on DPSSLNSGPCLHMAGGCGNQ yielded an amyloid nucleation score of -0.249 ± 1.7.
DQFLGYMANVAGVVP showed an amyloid nucleation score of 0.686 ± 0.34.
DRAWTGVWDDESPTT gave an amyloid nucleation score of -0.383 ± 1.7.
In the case of DRITLLRYPWKSIAISIDEG, the amyloid nucleation score is reported as 0.993 ± 0.36.
Work on DRRFFSSV yielded an amyloid nucleation score of -1.36 ± 1.
In the case of DRRRVVNINARQSVNIRFRM, the amyloid nucleation score is reported as 8.53 ± 0.044.
DRSTIWSTHNSTYVVYYLVV showed an amyloid nucleation score of 5.18 ± 0.063.
DRYYAGF gave an amyloid nucleation score of 0.464 ± 0.55.
For DSASGNILYIRKLVI, the amyloid nucleation score was 1.84 ± 0.13.
DSCLEGM showed an amyloid nucleation score of 1.5 ± 0.66.
In the case of DSDGFQRVPD, the amyloid nucleation score is reported as -0.736 ± 0.68.
Work on DSLIDRSKVLKQTLYSTYWL yielded an amyloid nucleation score of -0.12 ± 0.48.
Substance DSMYF has an amyloid nucleation score of 0.367 ± 0.53.
Work on DSRNTDFTCYFEIYYCCVNL yielded an amyloid nucleation score of 8.069 ± 0.063.
Work on DSSLCFGSYLWLVAMSLK yielded an amyloid nucleation score of -0.489 ± 0.75.
With DSTILNSLSPVWPRSATGPS the amyloid nucleation score was -0.529 ± 0.63.
In the case of DSTLTVKFLMMVRYMVCSVG, the amyloid nucleation score is reported as 1.71 ± 0.25.
Work on DSVVFSWVTYNTSSLSYHCG yielded an amyloid nucleation score of 2.41 ± 0.2.
With DTGLGVCWSAKLGYCVWGSL the amyloid nucleation score was 6.61 ± 0.071.
With DTLGRSLLYYIRYSRVNFPV the amyloid nucleation score was “inactive”.
For DTNKNFSFSKAQ, the amyloid nucleation score was -0.081 ± 0.37.
In the case of DTNVVWYYLSWDSPGNGDWK, the amyloid nucleation score is reported as “inactive”.
For DTSYGLQRVCKGR, the amyloid nucleation score was 0.429 ± 0.53.
DTVSLWLPARMTNDNFQDLS showed an amyloid nucleation score of 0.399 ± 0.22.
In the case of DVAPLGCGEPCYGSY, the amyloid nucleation score is reported as -1.22 ± 1.4.
Substance DVFHTLIRSRLDFFFYKRER has an amyloid nucleation score of 0.14 ± 0.4.
Work on DVFIGMMLRACNVLHSGWFS yielded an amyloid nucleation score of 0.18 ± 0.23.
In the case of DVGGCHVVTGFERNVKGDLL, the amyloid nucleation score is reported as 1.44 ± 0.78.
Work on DVLVHLP yielded an amyloid nucleation score of -0.917 ± 1.2.
With DVSPLVFVC the amyloid nucleation score was -0.407 ± 0.74.
